These results are taken from patent EP4714971A1 (Shanghai Hansoh Biomedical Co., Ltd., dated 2024).

Experiment [1] has as its target T1, cynomolgus monkey SEZ6 expressed on stably transfected CHO-K1 cells (cynomolgus monkey, UniProt Q53EL9 20-994 (human entry)).
T1 construct: also called CHO-cynoSEZ6; monkey SEZ6 on the cell membrane
T1 chain: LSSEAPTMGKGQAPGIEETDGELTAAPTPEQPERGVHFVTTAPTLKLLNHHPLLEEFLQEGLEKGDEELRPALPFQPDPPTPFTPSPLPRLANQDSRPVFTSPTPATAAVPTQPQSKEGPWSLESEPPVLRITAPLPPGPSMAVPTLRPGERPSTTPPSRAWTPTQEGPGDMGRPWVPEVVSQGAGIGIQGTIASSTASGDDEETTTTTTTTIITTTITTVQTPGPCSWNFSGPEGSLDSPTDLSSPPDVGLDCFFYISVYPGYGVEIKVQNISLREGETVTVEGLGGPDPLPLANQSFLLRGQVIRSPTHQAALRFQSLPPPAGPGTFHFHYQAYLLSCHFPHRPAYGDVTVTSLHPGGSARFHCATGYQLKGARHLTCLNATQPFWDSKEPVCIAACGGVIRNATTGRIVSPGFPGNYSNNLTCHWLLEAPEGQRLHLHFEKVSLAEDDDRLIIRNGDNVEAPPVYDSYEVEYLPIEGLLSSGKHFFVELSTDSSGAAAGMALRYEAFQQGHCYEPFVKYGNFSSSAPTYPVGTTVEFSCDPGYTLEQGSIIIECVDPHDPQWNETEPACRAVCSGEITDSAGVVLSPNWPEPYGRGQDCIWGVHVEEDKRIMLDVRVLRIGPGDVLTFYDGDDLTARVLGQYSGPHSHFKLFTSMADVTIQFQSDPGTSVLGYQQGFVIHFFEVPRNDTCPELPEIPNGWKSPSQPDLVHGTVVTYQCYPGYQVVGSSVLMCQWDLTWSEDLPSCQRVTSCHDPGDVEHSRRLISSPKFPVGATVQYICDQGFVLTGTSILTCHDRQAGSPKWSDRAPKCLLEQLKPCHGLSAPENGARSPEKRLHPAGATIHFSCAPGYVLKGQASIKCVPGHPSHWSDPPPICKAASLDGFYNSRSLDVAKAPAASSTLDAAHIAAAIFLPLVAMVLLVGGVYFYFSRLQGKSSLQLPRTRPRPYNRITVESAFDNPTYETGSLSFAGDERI
Nature of the experiment: flow cytometry on CHO-K1 cells expressing cynomolgus monkey SEZ6. Background: Flow cytometry measures light scatter and fluorescence of single cells or particles in a stream.

For another experiment, the target named is T2, SEZ6L2-Fc (human, UniProt Q6UXD5 28-844, limits assumed).
T2 construct: The construct is not described beyond its name; also called SEZ6L2 protein; Human SEZ6L2; not shown: Fc
T2 sequence (Q6UXD5 28-844 limits assumed): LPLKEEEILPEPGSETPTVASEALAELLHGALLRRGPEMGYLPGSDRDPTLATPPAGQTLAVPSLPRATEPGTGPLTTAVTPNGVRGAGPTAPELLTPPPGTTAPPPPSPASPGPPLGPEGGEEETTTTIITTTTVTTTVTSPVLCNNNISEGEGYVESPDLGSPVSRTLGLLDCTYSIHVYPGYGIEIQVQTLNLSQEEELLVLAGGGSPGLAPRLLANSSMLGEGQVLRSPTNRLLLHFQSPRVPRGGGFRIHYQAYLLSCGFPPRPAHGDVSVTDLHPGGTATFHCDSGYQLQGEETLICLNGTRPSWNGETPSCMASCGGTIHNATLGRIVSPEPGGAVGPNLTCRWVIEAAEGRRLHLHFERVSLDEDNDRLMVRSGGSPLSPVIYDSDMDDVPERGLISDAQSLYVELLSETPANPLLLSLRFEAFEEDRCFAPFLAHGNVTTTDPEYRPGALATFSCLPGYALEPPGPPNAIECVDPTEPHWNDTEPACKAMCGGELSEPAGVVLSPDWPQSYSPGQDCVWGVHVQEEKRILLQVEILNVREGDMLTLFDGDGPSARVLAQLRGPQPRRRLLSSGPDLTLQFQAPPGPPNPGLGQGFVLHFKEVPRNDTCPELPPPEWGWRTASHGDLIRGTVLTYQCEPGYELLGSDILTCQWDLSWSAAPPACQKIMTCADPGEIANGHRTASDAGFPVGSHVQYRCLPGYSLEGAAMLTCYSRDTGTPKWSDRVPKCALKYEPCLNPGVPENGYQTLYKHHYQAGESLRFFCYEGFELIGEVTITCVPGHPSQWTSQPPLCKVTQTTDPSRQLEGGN
Nature of the experiment: ELISA, coated Fc fusion protein at 1 ug/mL. Background: An ELISA detects its analyte on a solid surface through an enzyme-linked reagent.

The target in a further experiment is T3, SEZ6L-Fc protein (human, UniProt Q9BYH1 29-958, limits assumed).
T3 construct: The construct is not described beyond its name; also called SEZ6L protein; Human SEZ6L1; not shown: Fc
T3 sequence (looked up): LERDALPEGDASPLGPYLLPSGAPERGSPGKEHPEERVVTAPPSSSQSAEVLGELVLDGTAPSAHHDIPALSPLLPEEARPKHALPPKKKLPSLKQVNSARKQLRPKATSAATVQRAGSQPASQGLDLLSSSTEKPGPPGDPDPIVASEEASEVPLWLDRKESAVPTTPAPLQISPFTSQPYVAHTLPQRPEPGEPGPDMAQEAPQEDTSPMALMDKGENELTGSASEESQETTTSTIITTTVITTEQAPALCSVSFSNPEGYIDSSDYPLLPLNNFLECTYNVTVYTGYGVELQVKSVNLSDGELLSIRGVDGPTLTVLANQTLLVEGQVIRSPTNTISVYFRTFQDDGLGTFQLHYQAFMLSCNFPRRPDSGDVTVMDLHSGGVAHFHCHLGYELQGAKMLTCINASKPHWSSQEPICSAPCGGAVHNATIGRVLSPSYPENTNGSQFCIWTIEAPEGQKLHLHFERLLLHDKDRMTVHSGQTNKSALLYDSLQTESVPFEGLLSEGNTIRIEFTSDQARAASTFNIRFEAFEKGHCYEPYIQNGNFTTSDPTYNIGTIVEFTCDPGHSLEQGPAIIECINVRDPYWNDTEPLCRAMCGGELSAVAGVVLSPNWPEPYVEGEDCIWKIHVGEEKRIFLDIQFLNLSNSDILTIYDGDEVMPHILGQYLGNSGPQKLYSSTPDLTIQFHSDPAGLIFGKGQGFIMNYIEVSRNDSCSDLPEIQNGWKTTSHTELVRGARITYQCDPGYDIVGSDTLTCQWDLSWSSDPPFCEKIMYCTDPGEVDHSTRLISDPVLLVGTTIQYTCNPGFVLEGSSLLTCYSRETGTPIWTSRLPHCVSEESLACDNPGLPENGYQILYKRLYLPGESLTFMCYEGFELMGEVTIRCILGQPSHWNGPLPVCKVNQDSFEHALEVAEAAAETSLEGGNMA
Nature of the experiment: ELISA, coated Fc fusion protein at 1 ug/mL.

B1: hSC200 (hSC17.200) (antibody, human IgG1, kappa, V domains shown)
VH: EVQLVQSGAEVKKPGESLKISCKGSGYSFTSSWINWVRQMPGKGLEWMGRIYPGEGDTNYNGNFEGQVTISADKSISTAYLQWSSLKASDTAMYYCTRGLVMDYWGQGTLVTVSS
VL: EIVLTQSPATLSLSPGERATLSCRASQSVDYNGISYMHWYQQKPGQAPRLLIYAASNVQSGIPARFSGSGSGTDFTLTISSLEPEDFAVYYCQQSIEDPPTFGGGTKVEIKR
notes: also called control molecule; control antibody
As usually defined, the EC50 is the concentration that produces a half-maximal response. B1 showed an EC50 in experiment [1] of 0.26 nM.

B2: PR3178 (antibody, human IgG1, kappa, V domains shown)
VH: QVQLVQSGAEVKKPGASVKVSCKASGYTFTDYEMHWVRQAPGQGLEWMGGIDPESDNTVYNQKFKGRVTLTEDTSTSTAYMELRSLRSEDTAVYYCTRGDWYFDVWGQGTTVTVSS
VL: DIVMTQSPDSLAVSLGERATINCKSSQSLLNSRTRENYLAWYQQKPGQPPKLLIYWASTRESGVPDRFSGSGSGTDFTLTISSLQAEDVAVYYCGQSYNLFTFGQGTKLEIKR
notes: Humanized, human IgG1, kappa; also called humanized antibody of cAb3009
As to B2, the binding result with SEZ6L2-Fc and with SEZ6L-Fc protein was “no binding (tested: 10 nM)” in each case.
